{
  "source": "FireProtDB (doi:10.1021/bi00009a043)",
  "settings": "Danio rerio; pH 8; Thermal; DSC; Tris 20 mM; KCl 0.6 M; transition: 3; reversible: no",
  "note": "Several values for one entry are separate records, joined by “and”; a condition that tells them apart may be missing. Identical values can stand only once.",
  "data": [
    {"substance": "Tropomyosin alpha-1 chain wild type, P13104", "values": [
      {"measurement": "unfolding enthalpy (van 't Hoff)", "value": "118 kcal/mol and 124 kcal/mol and 151 kcal/mol"}
    ]}
  ]
}
